Results published in article PMC8012654.

Target: recombinant GST-αII spectrin peptide, codons 891-1231 (repeats 9 and 10), R1098Q (mouse) (UniProt P16546)
Assay: SPR; BIAcore T200, CM5 chip; GST-spectrin peptides captured by their GST tag on amine-coupled goat anti-GST antibody to 1,000 RU; CaM 20 nM to 500 nM flowed in HBS running buffer with 2 mM CaCl2; 25 °C, 20 µl/min; global fit, 1:1 Langmuir model with mass transport step; KD = kd/ka

- reduction in affinity for CaM relative to the WT peptide: 19%
Substance: purified bovine brain calmodulin (CaM) (from UniProt P62157 1-149) (natural protein)
